Assay results: US20120220489A1
Each block holds one substance with its values, some of them ahead of it.

Columns and labels:
[1] = molecular target: Histone H3 recombinant protein, human, Upstate 14-494 (human) (UniProt P68431); test: RPA standard curve, assay 1, LOD back-calculated from one-site fit
[2] = molecular target: Histone H3-BSA 2.7x peptide-protein conjugate (bovine); test: as above
[3] = molecular target: Histone H3 recombinant protein, human, Upstate 14-494 (human) (UniProt P68431); test: RPA, competition: +free H3 peptide 10000 nM
[4] = molecular target: pErk1/2-BSA 2.7x peptide-protein conjugate (human; bovine); test: RPA, competition: +free H3 peptide 10000 nM
[5] = molecular target: ERK1 (p44) active (GST tagged), human, Invitrogen PV 3311 (human) (UniProt P27361); test: RPA, competition: +free H3 peptide 10000 nM
[6] = molecular target: Histone H3 recombinant protein, calf, Roche 11 034 758 001 (calf) (UniProt P68432); test: RPA, competition: +free H3 peptide 10000 nM
[7] = molecular target: Histone H3 recombinant protein, human, Upstate 14-494 (human) (UniProt P68431); test: RPA standard curve, assay 2, LOD back-calculated from one-site fit
[8] = molecular target: Histone H3-BSA 2.7x peptide-protein conjugate (bovine); test: as above
[9] = molecular target: Erk1-BSA 2.7x peptide-protein conjugate (human; bovine); test: RPA standard curve, assay 1, LOD back-calculated from one-site fit
[10] = molecular target: ERK1 (p44) inactive (GST tagged), human, Invitrogen PV 3312 (human) (UniProt P27361); test: as above
[11] = molecular target: Erk1-BSA 2.7x peptide-protein conjugate (human; bovine); test: RPA standard curve, assay 2, LOD back-calculated from one-site fit
[12] = molecular target: ERK1 (p44) inactive (GST tagged), human, Invitrogen PV 3312 (human) (UniProt P27361); test: as above
[13] = molecular target: ERK1 (p44) inactive (GST tagged), human, Invitrogen PV 3312 (human) (UniProt P27361); test: RPA standard curves
[14] = molecular target: ERK1 (p44), human, Cell Signaling Technology 7416 (human) (UniProt P27361); test: RPA standard curves
[15] = molecular target: ERK1 (p42) active (phospho), human, Active Motif 31 152 (human) (UniProt P27361); test: RPA standard curves
[16] = molecular target: ERK1 (p44) active (GST tagged), human, Invitrogen PV 3311 (human) (UniProt P27361); test: RPA standard curves
[17] = molecular target: pErk1/2-BSA 2.7x peptide-protein conjugate (human; bovine); test: RPA standard curve, assay 1, LOD back-calculated from one-site fit
[18] = molecular target: pErk1/2-BSA 2.7x peptide-protein conjugate (human; bovine); test: RPA standard curve, assay 2, LOD back-calculated from one-site fit
[19] = molecular target: pRb recombinant protein, human, Active Motif 31 128 (human) (UniProt P06400); test: RPA, competition: +free pErk1/2 peptide 100 nM
[20] = molecular target: Histone H3 recombinant protein, human, Upstate 14-494 (human) (UniProt P68431); test: RPA, competition: +free pErk1/2 peptide 100 nM
[21] = molecular target: pRb-BSA 1x peptide-protein conjugate (bovine); test: RPA, competition: +free pErk1/2 peptide 100 nM
[22] = molecular target: Histone H3-BSA 2.7x peptide-protein conjugate (bovine); test: RPA, competition: +free pErk1/2 peptide 100 nM
[23] = molecular target: pErk1/2-BSA 2.7x peptide-protein conjugate (human; bovine); test: RPA, competition: +free pErk1/2 peptide 100 nM
[24] = molecular target: ERK1 (p44) active (GST tagged), human, Invitrogen PV 3311 (human) (UniProt P27361); test: RPA, competition: +free pErk1/2 peptide 100 nM
[25] = molecular target: pRb recombinant protein, human, Active Motif 31 128 (human) (UniProt P06400); test: RPA, competition: +free pErk1/2 peptide 10 nM
[26] = molecular target: Histone H3 recombinant protein, human, Upstate 14-494 (human) (UniProt P68431); test: RPA, competition: +free pErk1/2 peptide 10 nM
[27] = molecular target: pRb-BSA 1x peptide-protein conjugate (bovine); test: RPA, competition: +free pErk1/2 peptide 10 nM
[28] = molecular target: Erk1-BSA 2.7x peptide-protein conjugate (human; bovine); test: RPA, competition: +free pErk1/2 peptide 10 nM
[29] = molecular target: ERK1 (p44) inactive (GST tagged), human, Invitrogen PV 3312 (human) (UniProt P27361); test: RPA, competition: +free pErk1/2 peptide 10 nM
[30] = molecular target: Histone H3-BSA 2.7x peptide-protein conjugate (bovine); test: RPA, competition: +free pErk1/2 peptide 10 nM
[31] = molecular target: pErk1/2-BSA 2.7x peptide-protein conjugate (human; bovine); test: RPA, competition: +free pErk1/2 peptide 10 nM
[32] = molecular target: ERK1 (p44), human, Cell Signaling Technology 7416 (human) (UniProt P27361); test: RPA, competition: +free pErk1/2 peptide 10 nM
[33] = molecular target: ERK1 (p42) active (phospho), human, Active Motif 31 152 (human) (UniProt P27361); test: RPA, competition: +free pErk1/2 peptide 10 nM
[34] = molecular target: ERK1 (p44) active (GST tagged), human, Invitrogen PV 3311 (human) (UniProt P27361); test: RPA, competition: +free pErk1/2 peptide 10 nM
[35] = molecular target: ERK2 (p42), human, Biosource PHO 0104 (human) (UniProt P28482); test: RPA, competition: +free pErk1/2 peptide 10 nM
[36] = molecular target: Histone H3 recombinant protein, calf, Roche 11 034 758 001 (calf) (UniProt P68432); test: RPA, competition: +free pErk1/2 peptide 10 nM

Sequence of Histone H3-BSA 2.7x peptide-protein conjugate (bovine) (P02769 25-607 limits assumed): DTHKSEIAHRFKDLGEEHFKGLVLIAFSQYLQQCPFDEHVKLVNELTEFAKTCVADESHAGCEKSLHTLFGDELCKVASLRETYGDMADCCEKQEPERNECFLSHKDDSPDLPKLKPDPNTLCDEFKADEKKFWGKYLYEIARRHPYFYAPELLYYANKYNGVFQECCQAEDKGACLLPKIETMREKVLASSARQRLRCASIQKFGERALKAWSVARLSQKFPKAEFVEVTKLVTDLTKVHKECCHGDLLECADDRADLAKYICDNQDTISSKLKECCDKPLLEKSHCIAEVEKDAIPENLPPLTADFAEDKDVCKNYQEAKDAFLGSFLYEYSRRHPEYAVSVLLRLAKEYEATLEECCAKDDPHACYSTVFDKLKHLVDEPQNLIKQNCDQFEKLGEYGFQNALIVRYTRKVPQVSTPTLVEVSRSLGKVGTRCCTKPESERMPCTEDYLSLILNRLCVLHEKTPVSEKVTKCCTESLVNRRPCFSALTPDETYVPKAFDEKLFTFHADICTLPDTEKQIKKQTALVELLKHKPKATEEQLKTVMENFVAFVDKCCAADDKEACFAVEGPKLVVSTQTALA
Sequence of pErk1/2-BSA 2.7x peptide-protein conjugate (human; bovine) (P02769 25-607 limits assumed): as above
Sequence of Erk1-BSA 2.7x peptide-protein conjugate (human; bovine) (peptide, as listed by the source limits assumed, chain 1 of 2): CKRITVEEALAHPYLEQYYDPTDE
Sequence of Erk1-BSA 2.7x peptide-protein conjugate (human; bovine) (P02769 25-607 limits assumed, chain 2 of 2): as the sequence (P02769 25-607 limits assumed) above
Sequence of UniProt P06400 (P06400 whole entry): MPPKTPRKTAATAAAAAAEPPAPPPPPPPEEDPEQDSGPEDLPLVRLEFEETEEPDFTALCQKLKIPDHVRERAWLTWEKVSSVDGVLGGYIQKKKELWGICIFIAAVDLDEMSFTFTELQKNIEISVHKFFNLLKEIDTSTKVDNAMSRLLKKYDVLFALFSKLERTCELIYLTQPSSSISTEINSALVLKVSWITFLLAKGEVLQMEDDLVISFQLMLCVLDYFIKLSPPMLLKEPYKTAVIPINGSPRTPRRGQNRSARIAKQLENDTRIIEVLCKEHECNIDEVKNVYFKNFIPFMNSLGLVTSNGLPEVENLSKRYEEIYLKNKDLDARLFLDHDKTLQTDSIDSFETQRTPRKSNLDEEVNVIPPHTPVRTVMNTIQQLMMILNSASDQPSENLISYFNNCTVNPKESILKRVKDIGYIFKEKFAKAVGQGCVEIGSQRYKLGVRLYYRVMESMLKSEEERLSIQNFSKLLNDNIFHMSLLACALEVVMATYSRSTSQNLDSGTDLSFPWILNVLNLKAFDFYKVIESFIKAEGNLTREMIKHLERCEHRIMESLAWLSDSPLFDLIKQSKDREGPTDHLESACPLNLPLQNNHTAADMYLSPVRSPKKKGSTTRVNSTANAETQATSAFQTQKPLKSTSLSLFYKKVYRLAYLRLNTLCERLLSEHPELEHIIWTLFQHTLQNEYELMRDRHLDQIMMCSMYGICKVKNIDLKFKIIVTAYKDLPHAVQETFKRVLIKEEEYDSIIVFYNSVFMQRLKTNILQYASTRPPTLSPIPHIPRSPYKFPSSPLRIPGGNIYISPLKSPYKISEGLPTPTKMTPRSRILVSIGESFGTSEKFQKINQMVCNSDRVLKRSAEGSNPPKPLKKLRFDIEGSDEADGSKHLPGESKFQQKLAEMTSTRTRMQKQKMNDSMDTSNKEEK
Sequence of pRb-BSA 1x peptide-protein conjugate (bovine) (P02769 25-607 limits assumed): as the sequence (P02769 25-607 limits assumed) above
Sequence of UniProt P28482 (P28482 2-360 limits assumed): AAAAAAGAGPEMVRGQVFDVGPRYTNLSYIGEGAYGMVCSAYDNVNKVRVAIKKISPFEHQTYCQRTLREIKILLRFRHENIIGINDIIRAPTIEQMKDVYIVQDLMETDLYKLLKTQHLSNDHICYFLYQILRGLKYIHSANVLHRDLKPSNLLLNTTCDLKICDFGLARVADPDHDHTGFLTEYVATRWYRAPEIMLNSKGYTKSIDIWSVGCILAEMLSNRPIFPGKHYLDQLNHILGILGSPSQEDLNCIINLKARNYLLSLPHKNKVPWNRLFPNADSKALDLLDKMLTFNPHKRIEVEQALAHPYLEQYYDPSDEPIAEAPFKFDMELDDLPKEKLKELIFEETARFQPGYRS

- LOD [1]: 0.133 nM
- LOD [2]: 0.104 nM
- maximum standard curve signal [3]: 0.07 RFI
- maximum standard curve signal [4]: 0.02 RFI
- maximum standard curve signal [5]: < 0.01 RFI
- maximum standard curve signal [6]: < 0.01 RFI
- LOD [7]: 0.178 nM
- LOD [8]: 0.141 nM
Substance: Histone H3 antibody, Abcam ab1791

- LOD [9]: 0.045 nM
- LOD [10]: 0.059 nM
- LOD [11]: 0.046 nM
- LOD [12]: 0.084 nM
Substance: p44/42 MAPK (Erk1/2) antibody, Biosource 44-654G

- signal relative to pErk1 protein (Invitrogen) [13]: 3%
- signal relative to pErk1 protein (Invitrogen) [14]: 11%
- signal relative to pErk1 protein (Invitrogen) [15]: 12%
- signal intensity relative to the pErk1/2-BSA peptide standard [16]: 25%
- LOD [17]: 0.028 nM
- LOD [18]: 0.032 nM
- maximum standard curve signal [19]: 0.01 RFI
- maximum standard curve signal [20]: < 0.01 RFI
- maximum standard curve signal [21]: 0.01 RFI
- maximum standard curve signal [22]: 0.1 RFI
- maximum standard curve signal [23]: 0.45 RFI
- maximum standard curve signal [24]: 0.01 RFI
- maximum standard curve signal [25]: 0.01 RFI
- maximum standard curve signal [26]: 0.01 RFI
- maximum standard curve signal [27]: 0.01 RFI
- maximum standard curve signal [28]: 0.01 RFI
- maximum standard curve signal [29]: 0.01 RFI
- maximum standard curve signal [30]: 0.1 RFI
- maximum standard curve signal [31]: 1.05 RFI
- maximum standard curve signal [32]: 0.01 RFI
- maximum standard curve signal [33]: 0.01 RFI
- maximum standard curve signal [34]: 0.05 RFI
- maximum standard curve signal [35]: 0.01 RFI
- maximum standard curve signal [36]: 0.01 RFI
Substance: p44/42 MAPK phospho (pERK1/2) Thr202/Tyr204 antibody, Cell Signaling Technology #9101
